Data on one molecule can be found in US20240000833A1, “METHODS FOR EXPANDING A POPULATION OF ALVEOLAR MACROPHAGES IN A LONG TERM CULTURE” (Institut National de la Santé et de la Recherche Médicale, priority 2015, published 2024).

Common to all, as to type: cell-based, mouse
For assay [1], the system named is alveolar macrophages (AM). As to the kind of experiment: In vitro BrdU incorporation by alveolar macrophages after stimulation with GM-CSF. As to conditions: cultured AM, 3 days after stimulation, 18 h BrdU pulse. Here is the method:
(§1) Cell cycle analysis. In vitro proliferation of macrophages was assessed using the Cell Proliferation ELISA (BrdU, colorimetric; Roche) according to manufacturer's instructions. In brief, 10-20 thousand freshly isolated macrophages were plated per 96 well in a tissue culture dish in complete medium (DMEM, 10% FCS, 1% Pen/Strep, 1% Pyruvate, 1% Glutamate). After macrophages had attached to the plastic, plating medium was replaced with complete medium containing the respective cytokine at indicated concentration. On day 2 after stimulation, BrdU was added to the culture and BrdU incorporation was assessed on day 3.

For assay [2], the system named is peritoneal macrophages (PM). As to the kind of experiment: In vitro BrdU incorporation by peritoneal macrophages after stimulation with GM-CSF. As to conditions: cultured PM, 3 days after stimulation, 18 h BrdU pulse. Here is the method:
Peritoneal macrophages were collected by peritoneal washout using 10 mL PBS containing 2 mM EDTA (Sigma). Red cell lysis was performed (RBC Lysis Buffer, Invitrogen) and cells were filtered through a 70 um mesh before further processing. Medium changes occurred every 3-4 days.
as §1
Background: Dividing cells build labelled thymidine or BrdU into new DNA.

For assay [3], the system named is alveolar macrophages (AM). As to the kind of experiment: Long-term liquid culture of alveolar macrophages in the presence of GM-CSF. On the procedure: For culture of alveolar macrophages, alveolar lavages were pooled from ten 1 mL 37° C. BAL washes (PBS, 2 mM EDTA, 2% FBS (GE Healthcare) per mouse and stored on ice. RBC lysis was then performed at room temperature (RT) for 3 minutes (RBC Lysis Buffer, Invitrogen). Cells were plated at a density of at least 1.1 million cells per 10 cm bacterial petri dish (Greiner Bio-One) or NUNC non treated 6 well plates (>0.45-5*10^6 per well) in complete medium (RPMI, 10% FCS, 1% Pen/Strep, 1% Pyruvate, 1% Glutamate) supplemented with 1-2% GM-CSF supernatant from J558L cells transfected with murine GM-CSF cDNA. Medium was partially changed every two-three days. Cells were replated only at confluency and only at least one day after medium change. To avoid cell death during detachment, cells were detached with Accutase (StemCells Technologies) and 2 mM EGTA for 15 minutes at 37° C. without agitation or pipetting and careful monitored under the microscope for the detachment process. Only after a large number of cells started to round up and float, cells were carefully detached with a p1000 pipettte.
Cell Culture. […]

B1: GM-CSF: cytokine growth factor for leukocytes; used as supernatant from J558L cells transfected with murine GM-CSF cDNA (protein, UniProt P01587 18-141, looked up)
Granulocyte-macrophage …: APTRSPITVTRPWKHVEAIKEALNLLDDMPVTLNEEVEVVSNEFSFKKLTCVQTRLKIFEQGLRGNFTKLKGALNMTASYYQTYCPPTPETDCETQVTTYADFIDSLKTFLTDIPFECKKPGQK
Take B1: the “BrdU incorporation in response to GM-CSF” value was “incorprorated BrdU” in assay [1] and “not PM incorprorated BrdU” in assay [2]. For the same molecule, the “duration of expansion of AM in long-term liquid culture” value in assay [3] is listed as “several months”.
